By Km is commonly meant the concentration of substrate that gives half-maximal velocity. As a reminder, the kcat is the number of substrate molecules converted per active site and unit of time at saturation. What is called kcat/Km is the turnover number divided by the Michaelis constant.

One data set concerns T1, TrTAL.
T1 construct: gene TAL; codon-optimised synthetic gene in pET32a, E. coli BL21(DE3); purified; tags not described
The data set is described as follows: coumaric acid formation at […] nm. Type of data set: biochemical, Tephrocybe rancida. As to conditions: Tris-HCl, 40 °C, 30 min; pH 9.5 in table note (buffer pH 8.5 in methods).

For a further data set, the system named is T2, TALclu.
T2 construct: gene TAL; codon-optimised synthetic gene in pET32a, E. coli BL21(DE3) per general method; purified; tags not described
Put plainly: coumaric acid formation at […] nm. It is filed as biochemical, Chryseobacterium luteum. Conditions: Tris-HCl, 40 °C, 30 min; pH 9.5 in table note (buffer pH 8.5 in methods).

The next data set deals with T3, PpTAL.
T3 construct: gene TAL; codon-optimised synthetic gene in pET32a, E. coli BL21(DE3); purified; tags not described
Put plainly: coumaric acid formation at […] nm. It is filed as biochemical, Pleurotus pulmonarius. Conditions: Tris-HCl, 40 °C, 30 min; pH 9.5 in table note (buffer pH 8.5 in methods).

The next data set has as its system T4, LeTAL.
T4 construct: gene TAL; codon-optimised synthetic gene in pET32a, E. coli BL21(DE3); purified; tags not described
Put plainly: coumaric acid formation at […] nm. Type of data set: biochemical, Lentinula edodes. As to conditions: Tris-HCl, 40 °C, 30 min; pH 9.5 in table note (buffer pH 8.5 in methods).

Data set [1] has as its system N[C@@H](Cc1ccc(O)cc1)C(=O)O. Put plainly: purified protein. As to conditions: Tris-HCl, 40 °C, 30 min, pH 9.5 in table note (buffer pH 8.5 in methods).
Data set [2] has as its system T5, N[C@@H](Cc1ccc(O)cc1)C(=O)O.
T5 construct: full length 693 residues; pET32a, E. coli BL21(DE3); purified; tags not described
Put plainly: purified protein. Type of data set: biochemical, Rhodotorula glutinis. Conditions: Tris-HCl, 40 °C, 30 min, pH 9.5 in table note (buffer pH 8.5 in methods).

Substrate in data set [3]: N[C@@H](Cc1ccc(O)cc1)C(=O)O
The data set is described as follows: purified protein. Type of data set: biochemical, Armillaria solidipes. As to conditions: Tris-HCl, 40 °C, 30 min, pH 9.5 in table note (buffer pH 8.5 in methods).

Substrate in data set [4]: N[C@@H](Cc1ccc(O)cc1)C(=O)O
The data set is described as follows: purified protein. Type of data set: biochemical, Rhodotorula glutinis. Conditions: Tris-HCl, 40 °C, 30 min, pH 9.5 in table note (buffer pH 8.5 in methods).

On to `N[C@@H](Cc1ccc(O)cc1)C(=O)O` [L-tyrosine], for which the Km in the data set with TrTAL is 40 µM; in the data set with TALclu, 50 µM; with PpTAL, 40 µM; in the data set on LeTAL it was 70 µM.
Consider AaTAL (Aspergillus arachidicola), for which, in data set [1], the Michaelis constant (Km) turned out to be 30 µM, the catalytic constant (kcat) amounted to 25.2 s⁻¹ and the kcat/Km is 841000 M⁻¹ s⁻¹.
In the same order, the values of “IsTAL (Ilyonectria sp. MPI-CAGE-AT-0026)” are 570 µM, 120 s⁻¹ and 210000 M⁻¹ s⁻¹.
The matching figures for PcTAL (Puccinia coronata f. sp. avenae): 170 µM, 66.6 s⁻¹ and 392000 M⁻¹ s⁻¹.
As for RgTAL (Rhodotorula glutinis; E366H), in data set [2], the Km is 480 µM, the catalytic constant (kcat) was 40.3 s⁻¹ and the catalytic efficiency (kcat/Km) was found to be 84000 M⁻¹ s⁻¹.
With RgTAL (Rhodotorula glutinis; E366W), in data set [2], the Michaelis-Menten constant (Km) worked out at 850 µM, the turnover number (kcat) was 31 s⁻¹ and the catalytic efficiency (kcat/Km) came to 36500 M⁻¹ s⁻¹.
Turning to RgTAL (Rhodotorula glutinis; E587V), in data set [2], the Km is 330 µM, the kcat was found to be 163 s⁻¹ and the kcat/Km was 494000 M⁻¹ s⁻¹.
As for RgTAL (Rhodotorula glutinis; I668S), in data set [2], the Km was 3850 µM, the kcat was 53.6 s⁻¹ and the catalytic efficiency (kcat/Km) is 13900 M⁻¹ s⁻¹.
As to RgTAL (Rhodotorula glutinis; K603P), in data set [2], the Km was 1150 µM, the kcat amounted to 52.6 s⁻¹ and the specificity constant (kcat/Km) is 45700 M⁻¹ s⁻¹.
For RgTAL (Rhodotorula glutinis; Q10Y), in data set [2], the Km stood at 820 µM, the catalytic constant (kcat) was 884 s⁻¹ and the specificity constant (kcat/Km) was 1.08e+06 M⁻¹ s⁻¹.
In the case of RgTAL (Rhodotorula glutinis; Q337C), in data set [2], the Km stood at 6480 µM, the kcat came to 96.8 s⁻¹ and the kcat/Km is 14900 M⁻¹ s⁻¹.
In the same order, the values of RgTAL (Rhodotorula glutinis; Q337D) are 850 µM, 34.8 s⁻¹ and 40900 M⁻¹ s⁻¹.
In the same order, the values of RgTAL (Rhodotorula glutinis; R489T) are 710 µM, 817 s⁻¹ and 1.15e+06 M⁻¹ s⁻¹.

B1: AsTAL (Armillaria solidipes) (protein)
chain: MPASVFDDINSETKSGKGVGGVSGAHRTPSLLAKFLDSHKELKSYRNGRPVKVDGHTLSIAAVTAAARYNATVDLDGSPQVKAGVMKSRAVIADKVDNGTSVYGVSTGFGGSADTRTDQPLKLGQALLQHQHAGVLPSSDRTLDVLPLLDPMASTSMPESWVRGAMLVRMNSLIRGHSGVRWELLEKINELLRANITPVVPLRSSISASGDLSPLSYVAGTLVANPSIRVFDGPKKFGARKMVSSKDALASHGIQPISLVSKEGLGILNGTAFSASVASLALNDAVHLALLAQICTALGTEALSGTLGNYAPFIHATARPHPGQVESARHIWNLLRGSKLATTHEEEVSINQDKYSLRQDRYPLRTAPQFLGPQIEDILSALSTVIQECNSTTDNPLIDGETGEVHHGGNFQAMAVSNAMEKTRLALHHIGRLLFAQSTELVNPVMNHGLPPSLAASDPSLNYHGKGVDIATAAYVAELGYLAGPVTTHIQSAEMHNQAVNSLALISARATVNALEVLTMLMSSYLYLLCQAVDLRALRREFNTGLKSILSEELSAILGSQLSSQEIDISVSSMWGVVQTTLDKTTTMDAVDQMREVATACIPALIETVSRTNAINNALSSISQFRTNVASKATKLMAELRSSYLLGGRGPAPAGPYLGKTRAVYEYIRITLGVKMHGIENLGSFPNGLGVDDVTIGQNITAIFEAIRDGNFQDAVADLFEVLPHVKL
notes: codon-optimised synthetic gene in pET32a, E. coli BL21(DE3); purified; tags not described
Consider B1, for which, in “purified protein [3]”, the Km worked out at 540 µM, the kcat was 449 s⁻¹ and the kcat/Km came to 831000 M⁻¹ s⁻¹.

B2: RgTAL (Rhodotorula glutinis) (protein)
chain: MAPRPTSQSQARTCPTTQVTQVDIVEKMLAAPTDSTLELDGYSLNLGDVVSAARKGRPVRVKDSDEIRSKIDKSVEFLRSQLSMSVYGVTTGFGGSADTRTEDAISLQKALLEHQLCGVLPSSFDSFRLGRGLENSLPLEVVRGAMTIRVNSLTRGHSAVRLVVLEALTNFLNHGITPIVPLRGTISASGDLSPLSYIAAAISGHPDSKVHVVHEGKEKILYAREAMALFNLEPVVLGPKEGLGLVNGTAVSASMATLALHDAHMLSLLSQSLTAMTVEAMVGHAGSFHPFLHDVTRPHPTQIEVAGNIRKLLEGSRFAVHHEEEVKVKDDEGILRQDRYPLRTSPQWLGPLVSDLIHAHAVLTIEAGQSTTDNPLIDVENKTSHHGGNFQAAAVANTMEKTRLGLAQIGKLNFTQLTEMLNAGMNRGLPSCLAAEDPSLSYHCKGLDIAAAAYTSELGHLANPVTTHVQPAEMANQAVNSLALISARRTTESNDVLSLLLATHLYCVLQAIDLRAIEFEFKKQFGPAIVSLIDQHFGSAMTGSNLRDELVEKVNKTLAKRLEQTNSYDLVPRWHDAFSFAAGTVVEVLSSTSLSLAAVNAWKVAAAESAISLTRQVRETFWSAASTSSPALSYLSPRTQILYAFVREELGVKARRGDVFLGKQEVTIGSNVSKIYEAIKSGRINNVLLKMLA
notes: full length 693 residues; pET32a, E. coli BL21(DE3); purified; tags not described
For the molecule B2, in the data set “purified protein [4]”, the Km was determined as 360 µM, the kcat is 118 s⁻¹ and the catalytic efficiency (kcat/Km) was determined as 327000 M⁻¹ s⁻¹.

Source of the values: paper PMC10713628, “UniKP: a unified framework for the prediction of enzyme kinetic parameters” (Nature Communications, 2023).
